# In patent US20190367589A1 (CYTOMX THERAPEUTICS, published 2019):
# Substitutions are numbered along the chain they refer to.
# B1: 4D11 Fab (Fab, V domains shown)
# VH: EVQLLESGGGLVQPGGSLRLSCAASGFTFSSYAMSWVRQAPGKGLEWVSSIDPEGRQTYYADSVKGRFTISRDNSKNTLYLQMNSLRAEDTAVYYCAKDIGGRSAFDYWGQGTLVTVSS
# VL: DIQMTQSPSSLSASVGDRVTITCRASQSISSYLNWYQQKPGKAPKLLIYAASSLQSGVPSRFSGSGSGTDFTLTISSLQPEDFATYYCQQTVVAPPLFGQGTKVEIKR
# notes: C-terminally His-tagged Fab from the periplasm of E. coli; also called anti-Jagged Fab 4D11; Fab 4D11
# B2: 4E11 Fab (Fab, V domains shown)
# VH: B1 VH with D52E, E54M, R56Q, Q57L, Y59E
# VL: B1 VL with T91A, V92L, V93D, P96L, L97M
# notes: C-terminally His-tagged Fab from the periplasm of E. coli
# B3: anti-Jagged 13 IgG (antibody, V domains shown)
# VH: EVQLLESGGGLVQPGGSLRLSCAASGFTFSSYAMSWVRQAPGKGLEWVSSIETQGPTTLYADSVKGRFTISRDNSKNTLYLQMNSLRAEDTAVYYCAKTSSAFDYWGQGTLVTVSS
# VL: DIQMTQSPSSLSASVGDRVTITCRASQSISSYLNWYQQKPGKAPKLLIYASSLQSGVPSRFSGSGSGTDFTLTIGSLQPEDFATYYCQQNVATPLTFGQGTKVEIKR
# notes: Fully human IgG made from the variable domains of ScFv Jagged 13; also called anti-Jag 13
# B4: masking moiety JS5872 (peptide)
# peptide: GCNIWLNGGDCRGWVDPLQG
# B5: masking moiety JS5877 (peptide)
# peptide: GCNIWLVGGDCRGWIGDTNG
# B6: masking moiety JS5885 (peptide)
# peptide: GCNIWLVGGDCRGWIEDSNG
# B7: masking moiety JS5887 (peptide)
# peptide: GCNIWANGGDCRGWIDNIDG
# B8: masking moiety JS5342 (peptide)
# peptide: CNIWLVGGDCRGWQG
# B9: anti-Jagged 32 IgG (antibody, V domains shown)
# VH: B3 VH with T53Q, Q54M, P56W, T57Q, L59Y, T99S, S100A, S101A
# VL: B3 VL with S51A, G75S, N90T, A92V, T93A
# notes: Fully human IgG made from the variable domains of ScFv Jagged 32; also called anti-Jag 32; antibody 32/32
# B10: 6F8 Fab (Fab, V domains shown)
# VH: B3 VH with E52D, T53E, Q54M, P56W, T57Q, L59Y, T99S, S100A, S101A
# VL: B1 VL with T91A, V92L, P96L, L97T
# notes: C-terminally His-tagged Fab from the periplasm of E. coli; As printed its variable domains equal those of 6B7
# B11: 4B2 Fab (Fab, V domains shown)
# VH: B1 VH with D52E, P53Q, E54M, R56W
# VL: B1 VL with V92L, V93D, L97Q
# notes: as for B2
# B12: 4E7 Fab (Fab, V domains shown)
# VH: B3 VH with T53E, Q54M, P56W, T57Q, L59K, T99S, S100A, S101A
# VL: B1 VL with T91S, V92L, P96L, L97T
# notes: as for B2
# B13: 6B7 Fab (Fab, V domains shown)
# VH: B3 VH with E52D, T53E, Q54M, P56W, T57Q, L59Y, T99S, S100A, S101A
# VL: B1 VL with T91A, V92L, P96L, L97T
# notes: as for B2
# B14: anti-Jagged 13 Fab (Fab, V domains shown)
# VH: B3 VH
# VL: B3 VL
# notes: Fab expressed in E. coli; also called Jag13
# B15: anti-Jagged 32 Fab (Fab, V domains shown)
# VH: B3 VH with T53Q, Q54M, P56W, T57Q, L59Y, T99S, S100A, S101A
# VL: B3 VL with S51A, G75S, N90T, A92V, T93A
# notes: Fab expressed in E. coli; also called Jag32
# Tests used:
# [1] = target: T1, human Jagged 2-Fc (R&D Systems Cat #1726-JG-050) (human, UniProt Q9Y219 27-1080, limits assumed); experiment: drawn table 'Kd (nM)' of Fab; method not stated; the legend names the matured antibody as 4D11
# T1 construct: Bought reagent; also called hJag2; h Jagged 2; not shown: Fc part
# T1 sequence (Q9Y219 27-1080 limits assumed): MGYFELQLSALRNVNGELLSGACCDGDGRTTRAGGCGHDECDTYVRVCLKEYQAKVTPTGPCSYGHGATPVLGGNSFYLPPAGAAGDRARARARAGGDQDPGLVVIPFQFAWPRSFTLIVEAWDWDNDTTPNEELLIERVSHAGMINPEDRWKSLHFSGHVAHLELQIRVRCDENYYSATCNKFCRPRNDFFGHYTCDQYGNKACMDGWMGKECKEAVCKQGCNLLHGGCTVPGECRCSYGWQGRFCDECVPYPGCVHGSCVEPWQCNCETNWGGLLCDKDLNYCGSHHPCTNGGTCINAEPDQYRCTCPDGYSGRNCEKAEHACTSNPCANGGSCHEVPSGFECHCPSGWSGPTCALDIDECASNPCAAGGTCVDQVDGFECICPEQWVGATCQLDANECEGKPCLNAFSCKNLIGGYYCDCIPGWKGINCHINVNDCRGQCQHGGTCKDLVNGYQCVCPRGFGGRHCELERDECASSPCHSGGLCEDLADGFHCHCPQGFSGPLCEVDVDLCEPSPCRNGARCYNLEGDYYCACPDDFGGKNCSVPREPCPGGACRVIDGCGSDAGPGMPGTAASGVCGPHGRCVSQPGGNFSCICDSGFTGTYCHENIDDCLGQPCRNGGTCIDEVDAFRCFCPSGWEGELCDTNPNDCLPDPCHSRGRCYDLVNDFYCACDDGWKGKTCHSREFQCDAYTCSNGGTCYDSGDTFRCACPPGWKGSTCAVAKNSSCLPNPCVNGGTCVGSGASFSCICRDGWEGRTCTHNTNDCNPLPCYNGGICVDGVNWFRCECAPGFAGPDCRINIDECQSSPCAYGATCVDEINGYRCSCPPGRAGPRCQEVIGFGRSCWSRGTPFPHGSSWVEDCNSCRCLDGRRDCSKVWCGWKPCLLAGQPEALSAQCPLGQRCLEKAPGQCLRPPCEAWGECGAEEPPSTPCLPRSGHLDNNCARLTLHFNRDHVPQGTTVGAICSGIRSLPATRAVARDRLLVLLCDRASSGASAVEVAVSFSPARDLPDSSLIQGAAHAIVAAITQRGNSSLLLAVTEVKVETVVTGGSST
# [2] = target: T2, murine Jagged 2-Fc (R&D Systems) (murine, UniProt Q9QYE5 24-1082, limits assumed); experiment: BLI (Octet), Jagged-Fc on anti-human Fc tips, Fab in solution
# T2 construct: Bought reagent, cited as ibid. although no catalogue number is printed anywhere; also called m Jagged 2; not shown: Fc part
# T2 sequence (Q9QYE5 24-1082 limits assumed): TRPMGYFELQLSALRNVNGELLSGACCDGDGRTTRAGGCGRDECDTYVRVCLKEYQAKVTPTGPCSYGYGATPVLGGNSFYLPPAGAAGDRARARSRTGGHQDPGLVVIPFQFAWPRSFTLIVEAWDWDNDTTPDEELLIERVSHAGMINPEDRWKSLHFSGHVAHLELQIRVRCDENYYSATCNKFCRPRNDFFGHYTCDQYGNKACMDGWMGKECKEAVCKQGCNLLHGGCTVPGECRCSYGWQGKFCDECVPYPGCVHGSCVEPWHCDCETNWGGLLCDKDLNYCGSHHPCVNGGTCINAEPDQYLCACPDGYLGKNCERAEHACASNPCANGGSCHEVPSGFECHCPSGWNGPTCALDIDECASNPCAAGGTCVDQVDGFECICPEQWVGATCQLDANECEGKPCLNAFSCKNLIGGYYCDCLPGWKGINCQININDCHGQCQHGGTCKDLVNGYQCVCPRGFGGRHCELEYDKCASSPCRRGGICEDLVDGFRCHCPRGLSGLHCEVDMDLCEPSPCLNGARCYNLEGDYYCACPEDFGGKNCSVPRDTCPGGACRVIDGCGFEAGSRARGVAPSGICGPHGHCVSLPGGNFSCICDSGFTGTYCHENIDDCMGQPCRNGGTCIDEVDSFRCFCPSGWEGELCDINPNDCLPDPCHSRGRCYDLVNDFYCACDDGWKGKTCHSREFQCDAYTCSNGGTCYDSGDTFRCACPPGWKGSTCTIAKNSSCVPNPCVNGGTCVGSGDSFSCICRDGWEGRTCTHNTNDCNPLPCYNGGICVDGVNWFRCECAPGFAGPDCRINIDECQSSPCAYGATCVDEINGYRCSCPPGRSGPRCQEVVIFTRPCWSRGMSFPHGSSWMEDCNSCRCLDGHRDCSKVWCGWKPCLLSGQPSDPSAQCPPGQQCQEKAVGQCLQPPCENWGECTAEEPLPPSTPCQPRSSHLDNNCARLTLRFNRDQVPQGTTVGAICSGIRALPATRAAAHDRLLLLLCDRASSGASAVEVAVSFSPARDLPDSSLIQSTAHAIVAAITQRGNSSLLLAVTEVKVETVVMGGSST
# Experimental: (§1) Off rates for individual Fabs were measured using an Octet (ForteBio, Menlo Park, Calif.). […] Following a wash, the loaded tips were exposed to 25 μM Fab until binding had reached equilibrium. The tips were then removed to a fresh solution with no Fab, and the rate of Fab dissociation was measured.
# [3] = target: T1, human Jagged 2-Fc (R&D Systems Cat …); experiment: as above
# Experimental: as §1
# masking moiety JS5885 = target: B6; experiment: FACS of cells displaying the masking peptide, labelled Fab 4D11, signal normalised to expression; Fab concentration not given
# masking moiety JS5872 = target: B4; experiment: as above
# masking moiety JS5877 = target: B5; experiment: as above
# masking moiety JS5887 = target: B7; experiment: as above
# JS5347 = target: T3, JS5347; experiment: FACS of cells displaying the peptide, biotinylated anti-Jagged Fab at 1, 10 and 100 nM, streptavidin-PE, normalised to expression with yPet-MONA
# T3 construct: also called masking moiety JS5347
# T3 peptide displayed on cells: CNIWGPSVDCGALLG
# JS5358 = target: T4, JS5358; experiment: as above
# T4 construct: also called masking moiety JS5358
# T4 peptide displayed on cells: CNIWVNGGDCRSFEG
# masking moiety JS5342 = target: B8; experiment: as above
# JS5340 = target: T5, JS5340; experiment: as above
# T5 construct: also called masking moiety JS5340
# T5 peptide displayed on cells: CNLWLHGGDCRGWQG
# [4] = target: T6, human Jagged 1-Fc (extracellular domain of human Jagged 1 fused to the Fc portion of human IgG1); R&D Systems … (human, UniProt P78504 34-1067); experiment: BLI (Octet), Jagged-Fc on anti-human Fc tips, Fab in solution
# T6 construct: extracellular domain; Bought reagent; also called hJag1; h Jagged 1; not shown: Fc portion of human IgG1
# Experimental: as §1
# [5] = target: T1, human Jagged 2-Fc (R&D Systems Cat …); experiment: ELISA, ligand-Fc coated, anti-human IgG Fab-specific HRP
# Experimental: (§2) Bound antibody was visualized with an anti-human IgG-HRP conjugate, Fab specific, (Sigma, St Louis, Mo.; Cat # A0293-1ML) and developed with the chromogenic substrate TMB.
# [6] = target: T6, human Jagged 1-Fc (extracellular domain …); experiment: as above
# Experimental: as §2
# 4D11 Fab [7] = target: B1; experiment: FACS of bacteria displaying the peptide, labeled Fab 4D11, normalized to expression
# [8] = target: T7, anti-Jagged antibody 4D11 (fully human IgG); experiment: FACS of bacteria displaying the peptide
# T7 construct: Human IgG1 kappa from HEK-293 cells; Labeled with Alexa Fluor 680 in the tissue stainings, biotinylated in the peptide screens; also called anti-Jagged 4D11; 4D11 antibody
# 4D11 Fab [9] = target: B1; experiment: FACS of bacteria displaying the peptide
binder,measurement,setting,value
B1,Kd,[1],< 1 nM
same,koff,[2],0.00042 s⁻¹
same,koff,[3],0.00045 s⁻¹
same,binding result,masking moiety JS5885,binds
same,binding result,masking moiety JS5872,binds
same,binding result,masking moiety JS5877,binds
same,binding result,masking moiety JS5887,binds
same,binding result,JS5347,binds
same,binding result,JS5358,binds
same,binding result,masking moiety JS5342,binds
same,binding result,JS5340,binds
B2,koff,[2],2.5e-05 s⁻¹
same,koff,[3],0.00057 s⁻¹
same,koff,[4],0.0014 s⁻¹
B3,affinity (ELISA),[5],> 30 nM
same,affinity (ELISA),[6],> 30 nM
B4,binding result,4D11 Fab [7],binds
B5,binding result,4D11 Fab [7],binds
B6,binding result,4D11 Fab [7],binds
B7,binding result,4D11 Fab [7],binds
B8,binding result,4D11 Fab [7],binds
B9,affinity (ELISA),[6],> 30 nM
B10,koff,[4],0.0012 s⁻¹
B11,koff,[2],0.0011 s⁻¹
same,koff,[3],0.0065 s⁻¹
same,koff,[4],0.0005 s⁻¹
B12,koff,[4],0.00069 s⁻¹
B13,koff,[4],0.00035 s⁻¹
B14,koff,[2],0.0028 s⁻¹
same,koff,[3],0.001 s⁻¹
same,koff,[4],0.022 s⁻¹
B15,koff,[4],0.027 s⁻¹
PWCMQRQDFLRCPQP [masking moiety JS4874],binding result,[8],binds
same,binding result,4D11 Fab [9],binds
QLGLPAYMCTFECLR [masking moiety JS4879],binding result,[8],binds
same,binding result,4D11 Fab [9],binds
CNLWVSGGDCGGLQG [masking moiety JS4896],binding result,[8],binds
same,binding result,4D11 Fab [9],binds
SCSLWTSGSCLPHSP [masking moiety JS4897],binding result,[8],binds
same,binding result,4D11 Fab [9],binds
YCLQLPHYMQAMCGR [masking moiety JS4899],binding result,[8],binds
same,binding result,4D11 Fab [9],binds
CFLYSCTDVSYWNNT [masking moiety JS4906],binding result,[8],binds
same,binding result,4D11 Fab [9],binds
